# Measured values taken from patent US20160159924A1 (Novo Nordisk, published 2016).
# Positions count from the first letter of the chain named.
# B1: rec0266-0000-0010-VH_D98K (antibody, mouse IgG1, V domains shown)
# VH: DVKLVESGGGLVKPGGSLKLSCVASGFTFSSYTMSWVRQTPEKRLEWVATISGGGSHIYYADSVKGRFTISRDNAKNTLYLQMSSLKSEDTAIYYCTRDGRKGSWFAYWGQGTLVTVSA
# VL: DIVMTQSPATLSVTPGDRVSLSCRTSQSIGDYLHWYQQKSHESPRLLIKYVSQSISGIPSRFSGSGSGSDFTLSINSVESEDVGVYYCQNSHSFPLTFGSGTKLELKR
# B2: rec0266-0000-0010-VH_G99K (antibody, mouse IgG1, V domains shown)
# VH: B1 VH with K102D, G103K
# VL: B1 VL
# B3: rec0266-0000-0010-VH_D98S (antibody, mouse IgG1, V domains shown)
# VH: B1 VH with K102S
# VL: B1 VL
# B4: rec0266-0000-0010-VH_G96V (antibody, mouse IgG1, V domains shown)
# VH: B1 VH with G100V, K102D
# VL: B1 VL
# B5: rec0266-0000-0010-VH_G96K (antibody, mouse IgG1, V domains shown)
# VH: B1 VH with G100K, K102D
# VL: B1 VL
# B6: rec0266-0000-0010-VH_G99T (antibody, mouse IgG1, V domains shown)
# VH: B1 VH with K102D, G103T
# VL: B1 VL
# B7: rec0266-0000-0010-VH_G96N (antibody, mouse IgG1, V domains shown)
# VH: B1 VH with G100N, K102D
# VL: B1 VL
# B8: rec0266-0000-0010-VH_G99N (antibody, mouse IgG1, V domains shown)
# VH: B1 VH with K102D, G103N
# VL: B1 VL
# B9: rec0266-0000-0010-VH_G96L (antibody, mouse IgG1, V domains shown)
# VH: B1 VH with G100L, K102D
# VL: B1 VL
# B10: rec0266-0000-0010-VH_G99L (antibody, mouse IgG1, V domains shown)
# VH: B1 VH with K102D, G103L
# VL: B1 VL
# B11: rec0266-0000-0010-VH_G96P (antibody, mouse IgG1, V domains shown)
# VH: B1 VH with G100P, K102D
# VL: B1 VL
# B12: rec0266-0000-0010-VH_G99F (antibody, mouse IgG1, V domains shown)
# VH: B1 VH with K102D, G103F
# VL: B1 VL
# B13: rec0266-0000-0010-VH_G96T (antibody, mouse IgG1, V domains shown)
# VH: B1 VH with G100T, K102D
# VL: B1 VL
# B14: rec0266-0000-0010-VH_G96E (antibody, mouse IgG1, V domains shown)
# VH: B1 VH with G100E, K102D
# VL: B1 VL
# B15: rec0266-0000-0010-VH_G99P (antibody, mouse IgG1, V domains shown)
# VH: B1 VH with K102D, G103P
# VL: B1 VL
# B16: rec0266-0000-0010-VH_G99V (antibody, mouse IgG1, V domains shown)
# VH: B1 VH with K102D, G103V
# VL: B1 VL
# B17: rec0266-0000-0010-VH_D98T (antibody, mouse IgG1, V domains shown)
# VH: B1 VH with K102T
# VL: B1 VL
# B18: rec0266-0000-0010-VH_D98P (antibody, mouse IgG1, V domains shown)
# VH: B1 VH with K102P
# VL: B1 VL
# B19: rec0266-0000-0010-VH_D98R (antibody, mouse IgG1, V domains shown)
# VH: B1 VH with K102R
# VL: B1 VL
# B20: rec0266-0000-0010-VH_G96I (antibody, mouse IgG1, V domains shown)
# VH: B1 VH with G100I, K102D
# VL: B1 VL
# B21: rec0266-0000-0010-VH_G99R (antibody, mouse IgG1, V domains shown)
# VH: B1 VH with K102D, G103R
# VL: B1 VL
# B22: rec0266-0000-0010-VH_G99A (antibody, mouse IgG1, V domains shown)
# VH: B1 VH with K102D, G103A
# VL: B1 VL
# B23: rec0266-0000-0010-VH_D98Y (antibody, mouse IgG1, V domains shown)
# VH: B1 VH with K102Y
# VL: B1 VL
# B24: rec0266-0000-0010-VH_G96S (antibody, mouse IgG1, V domains shown)
# VH: B1 VH with G100S, K102D
# VL: B1 VL
# B25: rec0266-0000-0010-VH_G99E (antibody, mouse IgG1, V domains shown)
# VH: B1 VH with K102D, G103E
# VL: B1 VL
# B26: rec0266-0000-0010-VH_D98V (antibody, mouse IgG1, V domains shown)
# VH: B1 VH with K102V
# VL: B1 VL
# B27: rec0266-0000-0010-VH_G96R (antibody, mouse IgG1, V domains shown)
# VH: B1 VH with G100R, K102D
# VL: B1 VL
# B28: rec0266-0000-0010-VH_G99H (antibody, mouse IgG1, V domains shown)
# VH: B1 VH with K102D, G103H
# VL: B1 VL
# B29: rec0266-0000-0010-VH_G96F (antibody, mouse IgG1, V domains shown)
# VH: B1 VH with G100F, K102D
# VL: B1 VL
# B30: rec0266-0000-0010-VH_G99S (antibody, mouse IgG1, V domains shown)
# VH: B1 VH with K102D, G103S
# VL: B1 VL
# B31: rec0266-0000-0010-VH_D98L (antibody, mouse IgG1, V domains shown)
# VH: B1 VH with K102L
# VL: B1 VL
# B32: rec0266-0000-0010-VH_G96A (antibody, mouse IgG1, V domains shown)
# VH: B1 VH with G100A, K102D
# VL: B1 VL
# B33: rec0266-0000-0010-VH_G96Y (antibody, mouse IgG1, V domains shown)
# VH: B1 VH with G100Y, K102D
# VL: B1 VL
# B34: rec0266-0000-0010-VH_G99I (antibody, mouse IgG1, V domains shown)
# VH: B1 VH with K102D, G103I
# VL: B1 VL
# B35: rec0266-0000-0010-VH_G99Y (antibody, mouse IgG1, V domains shown)
# VH: B1 VH with K102D, G103Y
# VL: B1 VL
# B36: rec0266-0000-0010-VH_G96H (antibody, mouse IgG1, V domains shown)
# VH: B1 VH with G100H, K102D
# VL: B1 VL
# B37: rec0266-0000-0010-VL_N90F (antibody, mouse IgG1, name in Kabat numbering, V domains shown)
# VH: B1 VH with K102D
# VL: B1 VL with N90F
# B38: rec0266-0000-0010-VL_N90E (antibody, mouse IgG1, name in Kabat numbering, V domains shown)
# VH: B1 VH with K102D
# VL: B1 VL with N90E
# B39: rec0266-0000-0010-VL_N90I (antibody, mouse IgG1, name in Kabat numbering, V domains shown)
# VH: B1 VH with K102D
# VL: B1 VL with N90I
# B40: rec0266-0000-0010-VL_N90G (antibody, mouse IgG1, name in Kabat numbering, V domains shown)
# VH: B1 VH with K102D
# VL: B1 VL with N90G
# B41: rec0266-0000-0010-VL_N90H (antibody, mouse IgG1, name in Kabat numbering, V domains shown)
# VH: B1 VH with K102D
# VL: B1 VL with N90H
# Target: T1, recombinant human sc-uPA (human, UniProt P00749 21-431)
# T1 construct: 411 amino acid single-chain zymogen expressed in HEK293; the 20-residue signal peptide is not present in the mature protein; also called human single-chain uPA; pro-uPA
# Assay: SPR, mAb immobilised
# Experimental: The binding affinity to recombinant human sc-uPA protein (SEQ ID NO:1) was measured by surface plasmon resonance (SPR).
# (§1) The experiments were performed on a Biacore™ instrument (GE Healthcare) and analysed with the BIAcore 4000 Evaluation Software. Anti-human uPA mAb variants were directly immobilized at 150-600 RU on flow cells of a CM5 sensor chip (GE Healthcare; cat. # BR-1000-12) via amine coupling, respectively. Recombinant human sc-uPA was diluted in HBS-N (GE Healthcare Cat BR-1006-70) with 1% BSA buffer with a dilution factor 3× ranging 1000-0.13 nM. Recombinant human sc-uPA was injected for 60 s, followed by a 600 s dissociation phase. Binding curves were measured at 25° C. with a flow rate of 30 μL/min. Regeneration of the chip surface was performed with pH1.5 Glycine for 25 s at 30 μl/min. Determination of the kinetic parameters was performed by fitting with a 1:1 binding model. Binding affinities were calculated and are stated in Table 17 below.
row,Kd [nM],Binder
1,2,B1
2,4.8,B2
3,14,B3
4,2.1,B4
5,0.95,B5
6,5.4,B6
7,21,B7
8,18,B8
9,1.9,B9
10,2.1,B10
11,2.1,B11
12,1.7,B12
13,3,B13
14,2.3,B14
15,2.5,B15
16,2.5,B16
17,2.2,B17
18,0.98,B18

row,Kd [nM],Binder
1,1.1,B19
2,1.8,B20
3,15,B21
4,2.4,B22
5,1.8,B23
6,1.3,B24
7,1.4,B25
8,2.1,B26
9,3,B27
10,27,B28
11,7.2,B29
12,0.41,B30
13,2,B31
14,1.5,B32
15,13,B33
16,4.6,B34
17,1.8,B35
18,5.8,B36

# Target: T1, recombinant human sc-uPA
# Assay: SPR, mAb immobilised
# Remark: another data set of the same source
# Experimental: The binding affinity to recombinant human sc-uPA protein (SEQ ID […]) was measured by surface plasmon resonance (SPR).
# as §1, with “20” for “17”
row,Kd [nM],Binder
1,0.79,B37
2,0.43,B38
3,0.62,B39
4,0.68,B40
5,0.4,B41
